{"source": "the supplement of paper PMC12764529", "key": {"[1]": {"test": "folding stability dG unfold (combined trypsin and chymotrypsin); higher = more stable", "procedure,_shortened": "(§1)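 Unfolding free energy was derived, per protease or combined, by relating Bayesian-fitted K50 values from sequencing counts to a sequence-predicted unfolded-state K50 and a shared folded-state K50. The underlying digests exposed cysteine-free mini-proteins under 80 residues, in a PA-tagged cDNA display construct, to trypsin and chymotrypsin at 11 threefold-diluted concentrations and to a no-protease condition. A filter kept only designs with AlphaFold2 dimer inter-PAE above 15.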"}, "[2]": {"test": "folding stability dG unfold from chymotrypsin proteolysis; higher = more stable", "procedure,_shortened": "as §1"}, "[3]": {"test": "folding stability dG unfold from trypsin proteolysis; higher = more stable", "procedure,_shortened": "as §1"}}, "note": "± gives the half width of the 95% confidence interval.", "data": [{"sequence": "SAGDALKDLAPDVEITPSSFPFAFPPSRPVLAASIVAHPDNTITVFLTEVHPDGGARVLVYTLHLSDKSAGG [r19_125_TrMRF]", "values": [{"measurement": "folding stability dG unfold", "setting": "[1]", "value": "3.05 ± 0.14", "unit": "kcal/mol"}, {"measurement": "folding stability dG unfold", "setting": "[2]", "value": "3.2 ± 0.051", "unit": "kcal/mol"}, {"measurement": "folding stability dG unfold", "setting": "[3]", "value": "2.78 ± 0.12", "unit": "kcal/mol"}]}, {"sequence": "SAGGSAWMTLEEFIKEAAKNFPPGREKEIWIRHPGYVFKIDIRVTGPGQVKIKIDKIVPFPDGEPISAGGSA [r15_150_TrROS]", "values": [{"measurement": "folding stability dG unfold", "setting": "[1]", "value": "2.55 ± 0.11", "unit": "kcal/mol"}, {"measurement": "folding stability dG unfold", "setting": "[2]", "value": "2.88 ± 0.046", "unit": "kcal/mol"}, {"measurement": "folding stability dG unfold", "setting": "[3]", "value": "2.12 ± 0.067", "unit": "kcal/mol"}]}, {"sequence": "SAGGSAKMVLVKIKVEGMSVEEVKKLLEEAGAKVVKIDEEKKVIIVEVSPEKAEELAKKLGFEVEVSAGGSA [r15_731_TrROS_Hall]", "values": [{"measurement": "folding stability dG unfold", "setting": "[1]", "value": "3.45 ± 0.086", "unit": "kcal/mol"}, {"measurement": "folding stability dG unfold", "setting": "[2]", "value": "3.42 ± 0.11", "unit": "kcal/mol"}, {"measurement": "folding stability dG unfold", "setting": "[3]", "value": "3.36 ± 0.14", "unit": "kcal/mol"}]}, {"sequence": "SAGGSAMPEDTPFVVTKTTEYRLPDGSRVTFEPVPETGKTLVTFTPPDGSSERVWLTPEEAEKLLASAGGSA [r15_2_JUSTAS]", "values": [{"measurement": "folding stability dG unfold", "setting": "[1]", "value": "1.22 ± 0.11", "unit": "kcal/mol"}, {"measurement": "folding stability dG unfold", "setting": "[2]", "value": "1.3 ± 0.1", "unit": "kcal/mol"}, {"measurement": "folding stability dG unfold", "setting": "[3]", "value": "1.11 ± 0.02", "unit": "kcal/mol"}]}, {"sequence": "SAETKAEVFRFGDVLVVVTEERVTTPDGSERPVYTVTLLVYDPSTGKWTPFSRPFSSKEDAAKALSSGVSAG [r14_500_TrMRF]", "values": [{"measurement": "folding stability dG unfold", "setting": "[1]", "value": "1.98 ± 0.15", "unit": "kcal/mol"}, {"measurement": "folding stability dG unfold", "setting": "[2]", "value": "2.22 ± 0.083", "unit": "kcal/mol"}, {"measurement": "folding stability dG unfold", "setting": "[3]", "value": "1.52 ± 0.07", "unit": "kcal/mol"}]}, {"sequence": "SAMVLDLTELLREKAAEIRKADPRPLTPEELRELAREAAEELAKETGKPITEIRVEETDEWPRITAVVLSAG [r14_147_JUSTAS]", "values": [{"measurement": "folding stability dG unfold", "setting": "[1]", "value": "0.461 ± 0.24", "unit": "kcal/mol"}, {"measurement": "folding stability dG unfold", "setting": "[2]", "value": "-0.358 ± 0.3", "unit": "kcal/mol"}, {"measurement": "folding stability dG unfold", "setting": "[3]", "value": "1.04 ± 0.044", "unit": "kcal/mol"}]}, {"sequence": "SAGGSAGGSAGGVGKDKPVIIKIKIKRKVYGLNTPELIAEEEEEIVVVVHPDVNPEKIKPSAGGSAGGSAGG [r7_591_TrMRF]", "values": [{"measurement": "folding stability dG unfold", "setting": "[1]", "value": "1.83 ± 0.35", "unit": "kcal/mol"}, {"measurement": "folding stability dG unfold", "setting": "[2]", "value": "2.34 ± 0.056", "unit": "kcal/mol"}, {"measurement": "folding stability dG unfold", "setting": "[3]", "value": "1.06 ± 0.074", "unit": "kcal/mol"}]}, {"sequence": "SAGGPITITYDEETGVLTITITVPSLEEAEALIKALLPPGAEATRITVERNEDGSVTVTVEIRLPKGLSAGG [r13_338_TrROS_Hall]", "values": [{"measurement": "folding stability dG unfold", "setting": "[1]", "value": "2.31 ± 0.062", "unit": "kcal/mol"}, {"measurement": "folding stability dG unfold", "setting": "[2]", "value": "1.49 ± 0.024", "unit": "kcal/mol"}, {"measurement": "folding stability dG unfold", "setting": "[3]", "value": "2.99 ± 0.08", "unit": "kcal/mol"}]}, {"sequence": "SAGGSGPMTRSITITVTPEIVRDEKGNVTATKYTVTITRSPEVSPEEVEALAAELNAAGIPTTVTPSAGGSA [r2_456_JUSTAS]", "values": [{"measurement": "folding stability dG unfold", "setting": "[1]", "value": "1.5 ± 0.083", "unit": "kcal/mol"}, {"measurement": "folding stability dG unfold", "setting": "[2]", "value": "1.65 ± 0.099", "unit": "kcal/mol"}, {"measurement": "folding stability dG unfold", "setting": "[3]", "value": "1.23 ± 0.026", "unit": "kcal/mol"}]}, {"sequence": "SAGGSAGGMKLTLRIEAPREEVERLAKEFEAQGIKVTVKPRPDGRVELTLEIDLPDTDKSLFDPSAGGSAGG [r6_8_TrMRF]", "values": [{"measurement": "folding stability dG unfold", "setting": "[1]", "value": "2.55 ± 0.12", "unit": "kcal/mol"}, {"measurement": "folding stability dG unfold", "setting": "[2]", "value": "2.67 ± 0.057", "unit": "kcal/mol"}, {"measurement": "folding stability dG unfold", "setting": "[3]", "value": "2.49 ± 0.17", "unit": "kcal/mol"}]}, {"sequence": "SAGGSAGGMTFVDLGEDKPVVIEVPPRPETGLYPVVIHPPEKPVFVEVESPEEAIEAAEKLVEGSAGGSAGG [r6_715_TrMRF]", "values": [{"measurement": "folding stability dG unfold", "setting": "[1]", "value": "1.12 ± 0.045", "unit": "kcal/mol"}, {"measurement": "folding stability dG unfold", "setting": "[2]", "value": "0.788 ± 0.045", "unit": "kcal/mol"}, {"measurement": "folding stability dG unfold", "setting": "[3]", "value": "1.42 ± 0.051", "unit": "kcal/mol"}]}, {"sequence": "SAGGMVEVTYDPETGTLTILLPSPSGTLGPEAVEAAARLIRELYPEAEVEVEPLPDNTVRLRVRFPGGSAGG [r13_291_TrMRF]", "values": [{"measurement": "folding stability dG unfold", "setting": "[1]", "value": "4.96 ± 0.14", "unit": "kcal/mol"}, {"measurement": "folding stability dG unfold", "setting": "[2]", "value": "5.38 ± 0.23", "unit": "kcal/mol"}, {"measurement": "folding stability dG unfold", "setting": "[3]", "value": "4.22 ± 0.093", "unit": "kcal/mol"}]}, {"sequence": "SAGGYYIEFRNPNNGNTVTIPPELIEAIKSGDPDKLKKLPPWFRDALDNIDRVEIQPPPPVPPVPPGKSAGG [r13_233_TrROS]", "values": [{"measurement": "folding stability dG unfold", "setting": "[1]", "value": "0.887 ± 0.053", "unit": "kcal/mol"}, {"measurement": "folding stability dG unfold", "setting": "[2]", "value": "0.958 ± 0.041", "unit": "kcal/mol"}, {"measurement": "folding stability dG unfold", "setting": "[3]", "value": "0.68 ± 0.051", "unit": "kcal/mol"}]}, {"sequence": "SKKTITITIEDKETGLKVEITINEDGTITIKVYDKDGKLVAEVKAKIKLVKDKDGKIRLVIEEIEIKVKPSA [r9_434_TrROS_Hall]", "values": [{"measurement": "folding stability dG unfold", "setting": "[1]", "value": "3.61 ± 0.44", "unit": "kcal/mol"}, {"measurement": "folding stability dG unfold", "setting": "[2]", "value": "3.04 ± 0.13", "unit": "kcal/mol"}, {"measurement": "folding stability dG unfold", "setting": "[3]", "value": "3.87 ± 0.46", "unit": "kcal/mol"}]}, {"sequence": "SAGGWHTIQINVRRPGKPITPEKIKEALREAYPGYPIEVEDINPEDGRITITVPENAMPRIKEALMKSAGGS [r8_235_TrROS]", "values": [{"measurement": "folding stability dG unfold", "setting": "[1]", "value": "1.01 ± 0.11", "unit": "kcal/mol"}, {"measurement": "folding stability dG unfold", "setting": "[2]", "value": "0.896 ± 0.076", "unit": "kcal/mol"}, {"measurement": "folding stability dG unfold", "setting": "[3]", "value": "1.06 ± 0.041", "unit": "kcal/mol"}]}, {"sequence": "SAGGSAGGSAGGLGPDTPYATLSVTLTFTVRLKVRDPVTGKEYEIEYDVTLTFTFTVPASAGGSAGGSAGGS [r10_1116_TrMRF]", "values": [{"measurement": "folding stability dG unfold", "setting": "[1]", "value": "5.58 ± 0.4", "unit": "kcal/mol"}, {"measurement": "folding stability dG unfold", "setting": "[2]", "value": "5.84 ± 0.31", "unit": "kcal/mol"}, {"measurement": "folding stability dG unfold", "setting": "[3]", "value": "5.07 ± 0.54", "unit": "kcal/mol"}]}, {"sequence": "SAGGSAGGSPDAPPPPVNVVVPIPESELLSEEELPGGTTLRTYRLPDGTEITVRTAPDGRVTVDSAGGSAGG [r6_119_JUSTAS]", "values": [{"measurement": "folding stability dG unfold", "setting": "[1]", "value": "3.57 ± 0.13", "unit": "kcal/mol"}, {"measurement": "folding stability dG unfold", "setting": "[2]", "value": "3.86 ± 0.059", "unit": "kcal/mol"}, {"measurement": "folding stability dG unfold", "setting": "[3]", "value": "3.01 ± 0.16", "unit": "kcal/mol"}]}, {"sequence": "SAGGSGKKVKIKINIVVVFPPGDPDLAKEIAKWFARTIARELQAQGFEDIKDIEIRVHVIPPNQPGFSAGGS [r16_289_TrROS]", "values": [{"measurement": "folding stability dG unfold", "setting": "[1]", "value": "3.44 ± 0.12", "unit": "kcal/mol"}, {"measurement": "folding stability dG unfold", "setting": "[2]", "value": "3.604 ± 0.035", "unit": "kcal/mol"}, {"measurement": "folding stability dG unfold", "setting": "[3]", "value": "3.11 ± 0.094", "unit": "kcal/mol"}]}, {"sequence": "SAGGSAGGSKTVTLTLTLPGKKITFTLTEDGTVRMTVYNEKTGEKVKEITVPAKNLEELLKALSAGGSAGGS [r20_129_TrROS_Hall]", "values": [{"measurement": "folding stability dG unfold", "setting": "[1]", "value": "4.29 ± 0.066", "unit": "kcal/mol"}, {"measurement": "folding stability dG unfold", "setting": "[2]", "value": "4.63 ± 0.064", "unit": "kcal/mol"}, {"measurement": "folding stability dG unfold", "setting": "[3]", "value": "3.02 ± 0.085", "unit": "kcal/mol"}]}, {"sequence": "SPNWKIVEITEMERTDGRVTIKIKIKVPDGRIYIFMPNGKIIEEVPLGDDVELTITFPPNNWPIYIFVLDSA [r9_917_TrROS]", "values": [{"measurement": "folding stability dG unfold", "setting": "[1]", "value": "4.48 ± 0.18", "unit": "kcal/mol"}, {"measurement": "folding stability dG unfold", "setting": "[2]", "value": "4.69 ± 0.19", "unit": "kcal/mol"}, {"measurement": "folding stability dG unfold", "setting": "[3]", "value": "3.47 ± 0.093", "unit": "kcal/mol"}]}, {"sequence": "SAGSIEAAVEALEKELREKGYKVSVELVETDPSDPNRLNLVIRVTVEGFSPESKPLGKKEETYVIEGGSAGG [r19_418_JUSTAS]", "values": [{"measurement": "folding stability dG unfold", "setting": "[1]", "value": "1.28 ± 0.14", "unit": "kcal/mol"}, {"measurement": "folding stability dG unfold", "setting": "[2]", "value": "1.45 ± 0.069", "unit": "kcal/mol"}, {"measurement": "folding stability dG unfold", "setting": "[3]", "value": "1.12 ± 0.031", "unit": "kcal/mol"}]}]}
